# Assay results reported in patent US20130012432A1 (Novo Nordisk, published 2013).
# Positions of bridges follow the written chain, without caps; N, C: chain ends. Non-standard residues stand in square brackets, D forms with d. Groups on a side chain read outwards from the residue. Primed or numbered codes have the meaning given here. *: point of attachment. X5 = NH(2-(2-(2-(17-carboxyheptadecanoylamino)ethoxy)ethoxy)ethyl), O=C(O)CCCCCCCCCCCCCCCCC(=O)NCCOCCOCCN*; X6 = (2-(2-(17-carboxyheptadecanoylamino)ethoxy)ethoxy)acetyl, O=C(O)CCCCCCCCCCCCCCCCC(=O)NCCOCCOCC(=O)*; X3 = (2-(2-(15-carboxypentadecanoylamino)ethoxy)ethoxy)acetyl, O=C(O)CCCCCCCCCCCCCCC(=O)NCCOCCOCC(=O)*; X4 = (2-(2-(16-carboxyhexadecanoylamino)ethoxy)ethoxy)acetyl, O=C(O)CCCCCCCCCCCCCCCC(=O)NCCOCCOCC(=O)*; biscarboxymethyl = Lys(biscarboxymethyl) = Nepsilon-bis(carboxymethyl)-L-lysine; Palmitoyl(16-(5-tetrazolyl)) = O=C(CCCCCCCCCCCCCCCc1nnn[nH]1)*; biscarboxymethyl(3) = Nepsilon-bis(carboxymethyl) on Lys; Lys(CH2CO2H)2 = N[C@@H](CCCCN(CC(=O)O)CC(=O)O)C(=O)O; C17 diacid = O=C(O)CCCCCCCCCCCCCCCC(=O)*; Hyp = O=C(O)[C@@H]1C[C@@H](O)CN1; Orn = NCCC[C@H](N)C(=O)O; Dab = NCC[C@H](N)C(=O)O; AEEA = NCCOCCOCC(=O)O
# B1: Ac-c[Orn-Glu-His-D-Phe-Arg-Trp-Gly-Asp]-Pro-Ser-Lys-Glu-Glu-Ser-Ser-Lys({2-[2-(16-carboxyhexadecanoylamino)ethoxy]ethoxy}acetyl)-NH2 (peptide)
# peptide: Ac-[Orn]EH[dF]RWGDPSKEESSK(X4)-NH2
# modifications: lactam 1-8
# SMILES: CC(=O)N[C@H]1CCCNC(=O)C[C@@H](C(=O)N2CCC[C@H]2C(=O)N[C@@H](CO)C(=O)N[C@@H](CCCCN)C(=O)N[C@@H](CCC(=O)O)C(=O)N[C@@H](CCC(=O)O)C(=O)N[C@@H](CO)C(=O)N[C@@H](CO)C(=O)N[C@@H](CCCCNC(=O)COCCOCCNC(=O)CCCCCCCCCCCCCCCC(=O)O)C(N)=O)NC(=O)CNC(=O)[C@H](Cc2c[nH]c3ccccc23)NC(=O)[C@H](CCCNC(=N)N)NC(=O)[C@@H](Cc2ccccc2)NC(=O)[C@H](Cc2c[nH]cn2)NC(=O)[C@H](CCC(=O)O)NC1=O
# B2: Ac-c[Glu-His-D-Phe-Arg-Trp-Lys]-Pro-Pro-Arg-Asp-Lys(biscarboxymethyl)-Lys[(2-{2-[16-(tetrazol-5-yl)hexadecanoylamino]ethoxy}ethoxy)acetyl]-NH2 (peptide)
# peptide: Ac-EH[dF]RWKPPRD[Lys(CH2CO2H)2]K([AEEA-Palmitoyl(16-(5-tetrazolyl))])-NH2
# modifications: lactam 1-6
# SMILES: CC(=O)N[C@H]1CCC(=O)NCCCC[C@@H](C(=O)N2CCC[C@H]2C(=O)N2CCC[C@H]2C(=O)N[C@@H](CCCNC(=N)N)C(=O)N[C@@H](CC(=O)O)C(=O)N[C@@H](CCCCN(CC(=O)O)CC(=O)O)C(=O)N[C@@H](CCCCNC(=O)COCCOCCNC(=O)CCCCCCCCCCCCCCCc2nnn[nH]2)C(N)=O)NC(=O)[C@H](Cc2c[nH]c3ccccc23)NC(=O)[C@H](CCCNC(=N)N)NC(=O)[C@@H](Cc2ccccc2)NC(=O)[C@H](Cc2c[nH]cn2)NC1=O
# B3: Ac-c[Lys-His-D-Phe-Arg-Trp-Asp]-Pro-Pro-His-Ser-Lys(biscarboxymethyl)-Ser-Ser-Glu-Lys({2-[2-(16-carboxyhexadecanoylamino)ethoxy]ethoxy}acetyl)-NH2 (peptide)
# peptide: Ac-KH[dF]RWDPPHS[Lys(CH2CO2H)2]SSEK([AEEA-C17 diacid])-NH2
# modifications: lactam 1-6
# SMILES: CC(=O)N[C@H]1CCCCNC(=O)C[C@@H](C(=O)N2CCC[C@H]2C(=O)N2CCC[C@H]2C(=O)N[C@@H](Cc2c[nH]cn2)C(=O)N[C@@H](CO)C(=O)N[C@@H](CCCCN(CC(=O)O)CC(=O)O)C(=O)N[C@@H](CO)C(=O)N[C@@H](CO)C(=O)N[C@@H](CCC(=O)O)C(=O)N[C@@H](CCCCNC(=O)COCCOCCNC(=O)CCCCCCCCCCCCCCCC(=O)O)C(N)=O)NC(=O)[C@H](Cc2c[nH]c3ccccc23)NC(=O)[C@H](CCCNC(=N)N)NC(=O)[C@@H](Cc2ccccc2)NC(=O)[C@H](Cc2c[nH]cn2)NC1=O
# B4: Ac-c[Lys-His-D-Phe-Arg-Trp-Asp]-Pro-Pro-Arg-Asp-Lys(biscarboxymethyl)-Lys[(2-{2-[16-(tetrazol-5-yl)hexadecanoylamino]ethoxy}ethoxy)acetyl]-NH2 (peptide)
# peptide: Ac-KH[dF]RWDPPRD[Lys(CH2CO2H)2]K([AEEA-Palmitoyl(16-(5-tetrazolyl))])-NH2
# modifications: lactam 1-6
# SMILES: CC(=O)N[C@H]1CCCCNC(=O)C[C@@H](C(=O)N2CCC[C@H]2C(=O)N2CCC[C@H]2C(=O)N[C@@H](CCCNC(=N)N)C(=O)N[C@@H](CC(=O)O)C(=O)N[C@@H](CCCCN(CC(=O)O)CC(=O)O)C(=O)N[C@@H](CCCCNC(=O)COCCOCCNC(=O)CCCCCCCCCCCCCCCc2nnn[nH]2)C(N)=O)NC(=O)[C@H](Cc2c[nH]c3ccccc23)NC(=O)[C@H](CCCNC(=N)N)NC(=O)[C@@H](Cc2ccccc2)NC(=O)[C@H](Cc2c[nH]cn2)NC1=O
# B5: Ac-c[Lys-His-D-Phe-Arg-Trp-Glu]-Pro-Pro-Arg-Asp-Lys(biscarboxymethyl)-Lys[(2-{2-[16-(tetrazol-5-yl)hexadecanoylamino]ethoxy}ethoxy)acetyl]-NH2 (peptide)
# peptide: Ac-KH[dF]RWEPPRD[Lys(CH2CO2H)2]K([AEEA-Palmitoyl(16-(5-tetrazolyl))])-NH2
# modifications: lactam 1-6
# SMILES: CC(=O)N[C@H]1CCCCNC(=O)CC[C@@H](C(=O)N2CCC[C@H]2C(=O)N2CCC[C@H]2C(=O)N[C@@H](CCCNC(=N)N)C(=O)N[C@@H](CC(=O)O)C(=O)N[C@@H](CCCCN(CC(=O)O)CC(=O)O)C(=O)N[C@@H](CCCCNC(=O)COCCOCCNC(=O)CCCCCCCCCCCCCCCc2nnn[nH]2)C(N)=O)NC(=O)[C@H](Cc2c[nH]c3ccccc23)NC(=O)[C@H](CCCNC(=N)N)NC(=O)[C@@H](Cc2ccccc2)NC(=O)[C@H](Cc2c[nH]cn2)NC1=O
# Target: T1, human MC4 receptor (human, UniProt P32245 1-332)
# T1 construct: whole, on cells; Assayed as membranes of BHK cells stably expressing the receptor; also called melanocortin receptor subtype 4; melanocortin receptor 4
# T1 sequence (P32245 whole entry): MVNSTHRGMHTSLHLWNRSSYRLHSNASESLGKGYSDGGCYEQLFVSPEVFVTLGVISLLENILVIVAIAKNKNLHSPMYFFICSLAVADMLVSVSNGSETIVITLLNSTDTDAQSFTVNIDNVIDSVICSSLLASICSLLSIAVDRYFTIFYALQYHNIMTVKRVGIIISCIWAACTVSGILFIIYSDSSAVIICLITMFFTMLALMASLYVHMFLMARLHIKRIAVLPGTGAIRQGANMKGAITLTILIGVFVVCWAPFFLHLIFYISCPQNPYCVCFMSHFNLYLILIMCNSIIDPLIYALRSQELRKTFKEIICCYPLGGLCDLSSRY
# Assay: 125I-NDP-α-MSH displacement, BHK-human MC4 membranes (Assay V);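 note: Filter-retained radioactivity read by gamma counting, with affinity obtained through non-linear regression fitting of the binding curves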
row,Binder,Ki [nM]
1,B1,125
2,Ac-EQ[dF]RW[Orn]PPRDK(biscarboxymethyl(3))K([AEEA-Palmitoyl(16-(5-tetrazolyl))])-NH2 (lactam 1-6),58
3,B2,24
4,B3,14
5,Ac-EH[dF]RW[Orn]PPDK(biscarboxymethyl)K(X3)-NH2 (lactam 1-6),64
6,B4,3.87
7,B5,179
8,Ac-EH[dF]RW[Orn]PPDK(biscarboxymethyl)K(X6)-NH2 (lactam 1-6),8.6
9,Ac-[Dab]H[dF]RWDPPREK(biscarboxymethyl(3))SS-X5 (lactam 1-6),12.5
10,Ac-EH[dF]RW[Dab][Hyp][Hyp]RDK(biscarboxymethyl(3))K([AEEA-Palmitoyl(16-(5-tetrazolyl))])-NH2 (lactam 1-6),105
11,Ac-[Orn]H[dF]RWDPPREK(biscarboxymethyl)SS-X5 (lactam 1-6),0.93

# Target: T2, MC1 receptor (UniProt Q01726 1-317, limits assumed)
# T2 construct: whole, on cells; also called melanocortin receptor subtype 1; melanocortin receptor 1
# T2 sequence (Q01726 whole entry): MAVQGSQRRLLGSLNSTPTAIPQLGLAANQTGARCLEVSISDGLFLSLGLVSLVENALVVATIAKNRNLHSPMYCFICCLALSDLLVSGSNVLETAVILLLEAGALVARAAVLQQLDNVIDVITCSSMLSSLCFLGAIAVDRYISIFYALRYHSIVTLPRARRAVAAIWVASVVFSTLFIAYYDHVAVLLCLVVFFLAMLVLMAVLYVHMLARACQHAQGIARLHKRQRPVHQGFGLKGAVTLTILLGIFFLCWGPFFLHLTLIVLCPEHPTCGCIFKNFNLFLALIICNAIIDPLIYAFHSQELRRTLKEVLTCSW
# Assay: 125I-NDP-α-MSH displacement, BHK-MC1 membranes (Assay IV);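 note: membrane incubations stopped by filtration, retained radioactivity counted, Ki fitted by nonlinear regression to binding curves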
# Experimental: The MC1 receptor binding assay was performed on BHK cell membranes stably expressing the MC1 receptor. […] Test compounds were dissolved in DMSO. […] Alternatively, HSA may be substituted with ovalbumin. The samples were incubated at 30° C. for 90 min. in Costar round-bottom microtiter plates. Incubation was terminated by filtration on a Packard harvester filtermate. […] The filters were washed with ice-cold 0.9% NaCl 8-10 times. […] The plates were counted in a Topcounter (1 min/well).
# The data were analysed by non-linear regression analysis of binding curves, using the Windows™ program GraphPad™ Prism (GraphPad Software, USA).
row,Binder,Ki [nM]
1,Ac-[Orn]H[dF]RWDPPREK(biscarboxymethyl)SS-X5 (lactam 1-6),2500
